Consider two molecules from paper PMC7116892 (Science (New York, N.Y.), 2021).

In assay [1] the target is T1, Dyh5 (γ-HC), ODA heavy chain (Tetrahymena thermophila, UniProt I7M6H4 1-4168). Nature of the assay: cryo-EM structure.
Assay [2] deals with T2, Dyh3 (α-HC), ODA heavy chain (Tetrahymena thermophila, UniProt Q22A67 1-4620). Description: cryo-EM structure.
Assay [3] concerns the target T1, Dyh5 (γ-HC), ODA heavy chain. Nature of the assay: cross-linking.
The target of assay [4] is T2, Dyh3 (α-HC), ODA heavy chain. Nature of the assay: cross-linking.

B1: Shulin (Q22YU3), recombinant full-length, C-terminal 2xStrep (natural protein, Tetrahymena thermophila, UniProt Q22YU3 1-1200, looked up)
chain: MFNFFSSANINQNIPKYSVNDFVFRLKKIEKIVVKEGLDGFLLINGVDSRENTEYVKLTNWLFLGNSGLEIEENEYLNQIYSDMIVLIKKGTTHIFIDPEALNSLQTLIYSIPNVDVFCPTEKQYEDKDEMELLKMAFFLRVMKPTKKVGILLGQKDKGKINSIEKWPLIQSYGLEELGVGFFSMNHEVVDLTLRLNAVYKNYDKFFVSKLIYVVAKRLTGHFNSAAGQLGDMKMHKRNLATESQLTEIFRDTYEIEEISKWVQIRGVNAALPKPRVLFGKNTSADCSKEPSVAPLKDLKYSETFHSFHATFETFDLRTCLRAARTYFLAKGVKEERNLITLNDDEGVPQGYELNIDENQQYKDQDFLANLYLSIIIGFNEVMQLITKDYKNMTEEFIQDYIFQKVSKVYAGFQIPESEITLDKIQIILKAYNSFGEEVKIDFKDTISFKLTPYFFMVRIEQKNIKSQILNNTVLGSLVFAESFILQEGCYLLLTKEIPYFDLWNCQNDYSEKIEKMKKRILWEPLGKQISDELPKNRIFVQTGRKSNYGFDIPIMQASYYMHELGLRIETQRLGWFILFFKEMKEIQITQKMNHTWLIFKVDSNITFNSISKDTIALEFTGDALEQSFFKIKNYFEENQIKYEYQVDIPAIFQESQIAKKQILNQQSQGQKLITMNSIQNEQFFISYIESKQLMILNQMKDLKLSAYKNLYEQMQISQAITPVENHIGVILVNGSYCSGKRKFAENLIRFGSDNNLRLHLYKFDLNEMSELTEKSYLSGLLKFASEKKIQNTDVIVASVPHFINTKILIDYFSKSEKISNAFYIRTIATKININNIYSNFNKNPVNNVFTYGVEGYSQFLLLDTYNNYDADVNALNKTLSGVLPGAKIYKIMNNILNPALAKDILTSITFISEQNNLNRLKYSVQYDLLTSNGPSSVVFIPFKLPILREKIRDLIYKKILQNGNQTLVDTIEAEQKIAEFKELNKNSKDPLMIEIIKLKEKIEIQNAQTSDQAIKIDYVKGILRYDSKLKEGLEEITITPNYFIERTVKGVDAKEFTEELNGVSFKNVKYTGITNSIINDMGFVFAGKNLNKEKLLELLYKLVKPLNKQKLRQRKDLTEEEIVDIQFRNRGEGLENGEFYDGQFWRNIQGLILPHHPKKDEFIEEYLKQEEVRINQINEQLQQEWETWKQVYDKIHLDK
Turning to B1, the binding result in assay [1] and in assay [2] was “binds” each time.

B2: Q22MS1, recombinant, C-terminal 2xStrep (natural protein, Tetrahymena thermophila, UniProt Q22MS1 1-1892, looked up)
chain: MFQSYLQDIEKENNSSIYNAQAQQNSSTQQSIWDDYIDRQLEHLVVEYQFDFDKIAQRLAGVIGDKQQQKVNFDTCRQRWKQLHLRRYEDKDKDRLDRVSKSVMKMEDPNNALKVQELVEKLPKARQNKDFLKISDEEKLQAFYLNDKGEKIQPTTFNVLKDSVMGIKDKTERERVFKKQQEEFFKSLEKLAGEQDEDMFTKPLIFRAKFTEPTNFNFIVEREELTREQAQRIMSQKVQIKGAGLVPPEPEMGIKMDNYVSMFARPDEEEEELKKKDQEKEVQVNQQIMQDQQETKEEQERDQEELKKQMELTEEEKKKQQEQEEEKKKINVDLYLAERGLKSIDEALNSLEKMRSKVKVNNYFEEAQTEDKKLKEQKEKNQQKVDNEDQIRQEIIKQGLEQLKQKEQGDQLVQFHENQIKKDIKELNEIIGDNKSKNVKNQTQQPNKAVEEEEEIILEKKNDQSKKVPTKKGIFSQFAEEEDSGSEDEVGNDEEELDDELYLQAQRIGLKSDAEIDLFITKKKEERKANMLNKKKVQFSEFSEQKQISEDTDELLAKQEKQIKQKQQFLEKLKKKSENEAGENDESNQEGSQNWRDLEFSAGMAFKRQLEEEKMQRMIKEQFEEEQRRKADQERIRQIQEEYHLKKLDIETKIKLREPLNLEKVNQEKWKEYIEAQQKRREEIEKEFEEKQRIQTEQEEKEQKENLIKEKIHFFEQKIKNFPSNDPFKCFFDDQVSYLSQISSLPSKITTKIADLKKYDISRDGITSRYQILIFPYLDKCQEFVFQFLSFFLRNSFFRQPPSEKELGEIVSENPLDEIPCQRLSSKGFPFCLVSFYIGSHTSEINDEQDEQYLSNYLNDAIKFDKLINDDKLQKSIYLFFDTYIGRGQDTLSKQLDLALTEFLSDGCLDQAIRKYGEKVINRDMKLSDFKTAYYKNMEIAKKLFNESNTFHSICPTKTSYHQTNQLAIHQNKKKQLLPTSPSNSPSIISHSHGNKWETSVIIIRNYSEIQNPSALRQQQNRGVDFSNASDLMQQDVTTEQYSNLSESLSNLVPSHTEISQRQKQQMTDVIHYTLNKLQEKGIQILGMKSFFFDQKTVQEFKSYVENINFNTNTNQPIVVISVAGFDLHSKLKKMVGSEDAQLAKRVEPNSLNALFSTGRDDSIIIPYNKALSRRLISYFFCGRLEKIQTVQDIQVIEGLTNKKQLYLTKPKPFNPVFLLNSQPIREHICLLSSKFLPQQFCEVIRKIQARGFELLNIRVIDSSNLSAILKKDEDFSAFIENENLQELNSGENDYERINLVLHIQGANISSLRNTLLNKIIDYNPFLHPSKREIFYYTKDDLSLTLLKDIFFNRHIKSNFTPSERFPLFIALWPFLNDYEEKEGLTASQAVPLGNDLKIMSSYGLELLSVSKIFKSQIQQKLNTSIEEETEHVDLKSILHQLIQNNIQINSITKKKPEFSTFCSRLGEEILSQDFYLAVFRYQGDRQSKHLDKLFTEVPFVHSNKTINESTVVTHGAKQTPHTQAKPLPTEFLTLFFLDSSAQQVSNFTKLLGIGAFDDWSFKGSFIFDLPSSGYTGEIETLIILSEDVVKTLLLVGLVKIIENNQFKIKSFFKHRCSREFSEVIQENLLQAFSGYESQMHDQGTKLQKIKASLDNLMTRLQGESMYFLVLSKENGIFNGKKILFELAEKYSVFKKETINVESSTEYMLDKGMYCSLNYKCQQREFKELQFMSQQILSMAHENNQEQQDVDKMYDNQLVMVIRIDQQIQLYEVFRKLQSDLKFKIIHFLVMRQFEWTDIQYISSHFTPKFEAQHIQKYFEINNDGIYCIVHLDSKNSVSLSDAFGTLRLNEKGEFKQVIRSSLFGKQEVFFIYTNNPQHVKKLSAYAFKSSE
B2: the binding result in assay [3] and in assay [4] was “binds” each time.
